Assay results as given in publication PMC6980832, “Crystal structures of Triosephosphate Isomerases from Taenia solium and Schistosoma mansoni provide insights for vaccine rationale and drug design against helminth parasites” (PLoS Neglected Tropical Diseases, 2020).

How the values were obtained:
[1] = molecular target: the molecule itself; test: crystal structure; sitting drop; protein 20 mg/ml incubated with 10 mM 2-phosphoglyceric acid in storage buffer; homodimer seen in the crystal
[2] = molecular target: the molecule itself; test: SEC; gel filtration elution profile of wild-type and point mutants of SmTPI; conditions not shown

B1: Triosephosphate isomerase from Taenia solium (enzyme)
chain: GPHMTRKLFVGGNWKMNGSYSHINTFFDTLQKADTDPNADIVIGVPACYLKYAQDKAPKGIKIAAENCYKVGSGAFTGEISTEMIKDCGCEWVILGHSERRHIFGESNELIGEKVKHALDSGLNVIPCIGELLSEREAGKTNDVCFAQMDAIAKNVPSKEAWDKVVIAYEPVWAIGTGKTATPAQAQEVHKVVRDWIRKHVDAGIADKVRILYGGSVTASNAKDLGTQPDVDGFLVGGASLKPDFITIINARR
notes: three additional amino acids (Gly, Pro, His) before the initial methionine, left from the modified pET19 vector; triosephosphate isomerase, Taenia solium, GenBank AAG21132.1; all 250 amino acids visible in the crystal structure; also called TsTPI; source: E. coli strain devoid of its endogenous triosephosphate isomerase gene, purified (two purification steps)
binding result [1]: binds

B2: Triosephosphate isomerase from Schistosoma mansoni (enzyme)
chain: GPHMSGSRKFFVGGNWKMNGSRDDNDKLLKLLSEAHFDDNTEVLIAPPSVFLHEIRKSLKKEIHVAAQNCYKVSKGAFTGEISPAMIRDIGCDWVILGHSERRNIFGESDELIAEKVQHALAEGLSVIACIGETLSERESNKTEEVCVRQLKAIANKIKSADEWKRVVVAYEPVWAIGTGKVATPQQAQEVHNFLRKWFKTNAPNGVDEKIRIIYGGSVTAANCKELAQQHDVDGFLVGGASLKPEFTEICKARQR
notes: three additional amino acids (Gly, Pro, His) before the initial methionine, left from the modified pET19 vector; triosephosphate isomerase, Schistosoma mansoni, XP_018647623; all 253 amino acids visible in the crystal structure; also called SmTPI; wild-type SmTPI; source: E. coli strain devoid of its endogenous triosephosphate isomerase gene, purified (two purification steps)
stoichiometry N [2]: 2
